The results in this text go back to publication PMC4040282 (Physical chemistry chemical physics : PCCP, 2014).

A word on the Kd: it is the free concentration of one partner at which half of the binding sites on the other are occupied at equilibrium, for simple one-to-one binding. Read a high Kd as weaker binding. By kon is commonly meant the second-order rate constant of association. High values mean fast association, low ones slow association.

Residue numbers refer to the chain shown, from its start. Names and notes keep the numbering of the source. Read-outs that look alike come from different tables or passages of the source.

In test [1] the target is (p50(248-350)/RelA(190-321)) heterodimer, biotinylated (murine, UniProt P25799 248-350; Q04207 190-321, biotin PEO maleimide (on the added N-terminal cysteine)). The experiment in a line: SPR. On the technique in general: In SPR one partner is held on a chip, and binding of the other changes the refractive index at the surface.
The target in test [2] is T1, N-terminal hexahistidine-NFκB (His6-p50(39-350)/RelA(19-321)) heterodimer (UniProt P25799 39-350; Q04207 19-321). The test is described as follows: stopped-flow fluorescence.
The target in test [3] is T1, N-terminal hexahistidine-NFκB …. The test is described as follows: stopped-flow fluorescence. The source holds these as a separate data set.

B1: Human wild-type IκBα(67-287) (domain or fragment, UniProt P25963 67-287, looked up)
chain: KQQLTEDGDSFLHLAIIHEEKALTMEVIRQVKGDLAFLNFQNNLQQTPLHLAVITNQPEIAEALLGAGCDPELRDFRGNTPLHLACEQGCLASVGVLTQSCTTPHLHSILKATNYNGHTCLHLASIHGYLGIVELLVSLGADVNAQEPCNGRTALHLAVDLQNPDLVSLLLKCGADVNRVTYQGYSPYQLTWGRPSTRIQQQLGQLTLENLQMLPESEDEE
With B1, the affinity in test [1], expressed as Kd, was 0.172 ± 0.004 nM. The on-rate (kon) in test [2] is 1.4e+07 M⁻¹ s⁻¹.

B2: IκBα(67-287) E282W (domain or fragment, human, UniProt P25963 67-287, looked up)
chain: B1 chain with E216W
Turning to B2, binding in test [1] was characterised by a dissociation constant (Kd) of 0.155 ± 0.014 nM. Also, the association rate constant (kon) in test [2] is 1.1e+07 M⁻¹ s⁻¹; in test [3] it was 3.8e+06 M⁻¹ s⁻¹.

B3: IκBα(67-287) P261F (domain or fragment, human, UniProt P25963 67-287, looked up)
chain: B1 chain with P195F
B3 displayed a dissociation constant (Kd) in test [1] of 0.462 ± 0.008 nM. This molecule had an association rate constant (kon) in test [2] of 1.4e+07 M⁻¹ s⁻¹.
